T1: Human CXCR2 (human, UniProt P25025 1-360)
T1 sequence: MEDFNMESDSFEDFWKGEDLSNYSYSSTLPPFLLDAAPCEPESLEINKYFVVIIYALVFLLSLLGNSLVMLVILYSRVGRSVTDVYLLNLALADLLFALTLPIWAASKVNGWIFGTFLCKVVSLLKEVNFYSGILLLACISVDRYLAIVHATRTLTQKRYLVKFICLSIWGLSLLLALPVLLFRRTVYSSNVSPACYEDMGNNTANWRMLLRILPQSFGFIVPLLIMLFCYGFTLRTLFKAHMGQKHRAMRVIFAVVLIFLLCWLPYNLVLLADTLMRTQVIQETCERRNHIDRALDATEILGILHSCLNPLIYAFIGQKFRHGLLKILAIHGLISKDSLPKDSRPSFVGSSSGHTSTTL

T2: Cynomolgus CXCR2 (cynomolgus, UniProt Q28519 3-353 (rhesus entry))
T2 chain: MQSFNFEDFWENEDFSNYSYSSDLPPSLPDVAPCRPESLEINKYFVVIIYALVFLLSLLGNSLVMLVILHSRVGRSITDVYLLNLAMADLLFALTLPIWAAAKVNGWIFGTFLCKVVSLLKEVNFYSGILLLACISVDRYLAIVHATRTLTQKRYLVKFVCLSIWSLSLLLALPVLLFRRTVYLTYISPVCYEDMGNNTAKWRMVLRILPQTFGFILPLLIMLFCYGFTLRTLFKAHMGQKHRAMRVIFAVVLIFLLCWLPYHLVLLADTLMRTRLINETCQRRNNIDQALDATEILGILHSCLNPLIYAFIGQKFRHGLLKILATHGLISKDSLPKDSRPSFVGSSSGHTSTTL


What was measured:
Test in all cases: cell-based or functional assay
Human CXCR2 [1] = target: T1, Human CXCR2
Cynomolgus CXCR2 = target: T2, Cynomolgus CXCR2
Human CXCR2 [2] = target: T1, Human CXCR2; remark: listed apart in the source

Binder	Human Chemotaxis IC50 (GROα) (Human CXCR2 [1])	HumanWBSC IC50 (rhGROα) (Human CXCR2 [1])	FLIPR IC50, GRO-α induced intracellular calcium release (Cynomolgus CXCR2)	FLIPR IC50, GRO-α induced intracellular calcium release (Human CXCR2 [2])	[35S]GTPγS % inhibition max, GRO-α (Human CXCR2 [2])	[35S]GTPγS accumulation IC50, GRO-α (Human CXCR2 [2])
2B2 (VHH, not shown: small tags and cut ends) VHH: EVQLVESGGELVQPGGSLRLSCAASGSILTINAMGWYRQAPGKQRELVVRRTRGGSTTYQDSVKGRFTISADIAKKTMYLQMNSLKPEDTAVYYCMLDDRGGVYWGQGTQVTVSS	50 nM	29.5 nM	3850 nM	441 nM	71.3%	103 nM
163D02 (VHH, not shown: small tags and cut ends) VHH: EVQLVESGGGLVQAGGSLRLSCAASGRTFSDYAMGWFRQAPGKEREFVAAITWNGGRVFYTASVKGRFTISRDNAKNTMYLQMNSLKPEDTAVYYCAADKDRRTDYLGHPVAYWGQGTQVTVSS		6.6 nM	37.2 nM	1.91 nM	100%	53.2 nM
097A09 (VHH, not shown: small tags and cut ends) VHH: EVQLVESGGGLVQPGGSLRLSCVASGSIVRINTMGWYRQTPGKQRELVADITSGGNINYIDAVKGRFTISRDNTKNTVYLQMNSLKPEDTAVYYCNAEIVVLVGVWTQRARTGNYWGQGTQVTVSS	4.8 nM	11.6 nM	640 nM	39.9 nM	100%	50.3 nM

Now from value to binder:

Human Chemotaxis IC50 (GROα) (Human CXCR2 [1])	HumanWBSC IC50 (rhGROα) (Human CXCR2 [1])	FLIPR IC50, GRO-α induced intracellular calcium release (Cynomolgus CXCR2)	FLIPR IC50, GRO-α induced intracellular calcium release (Human CXCR2 [2])	[35S]GTPγS % inhibition max, GRO-α (Human CXCR2 [2])	[35S]GTPγS accumulation IC50, GRO-α (Human CXCR2 [2])	Binder
1.3 nM	9.4 nM	158 nM	44.3 nM	100%	64.7 nM	163E03 (VHH, not shown: small tags and cut ends) VHH: EVQLVESGGGLVQPGGSLRLSCVASGRIFSSNAMGWFRQAPGKEREFVAAITWRSGGSAYYADSAKGRFTISRDNAKNTVYLQMNSLKPEDTAVYYCAAGGSSWLSFPPDYWGQGTQVTVSS
	19.7 nM	4080 nM	153 nM	71.8%	15.4 nM	54B12 (VHH, not shown: small tags and cut ends) VHH: EVQLVESGGGLVQAGGSLTLSCAVSGSTFRINTMGWYRRAPGKQRELVAARDRGGYINYVDSVKGRFTVSRDNAKPTMYLQMNSLKPEDTAVYYCHAGTQDRTGRNFDRWGQGTQVTVSS

— patent US20170101476A1 (Novartis, published 2017)
